Data taken from IntAct's records for PubMed 16511560.

B1: Protein Mdm4 (Homo sapiens), O15151 (parent)
chain: MTSFSTSAQCSTSDSACRISPGQINQVRPKLPLLKILHAAGAQGEMFTVKEVMHYLGQYIMVKQLYDQQEQHMVYCGGDLLGELLGRQSFSVKDPSPLYDMLRKNLVTLATATTDAAQTLALAQDHSMDIPSQDQLKQSAEESSTSRKRTTEDDIPTLPTSEHKCIHSREDEDLIENLAQDETSRLDLGFEEWDVAGLPWWFLGNLRSNYTPRSNGSTDLQTNQDVGTAIVSDTTDDLWFLNESVSEQLGVGIKVEAADTEQTSEEVGKVSDKKVIEVGKNDDLEDSKSLSDDTDVEVTSEDEWQCTECKKFNSPSKRYCFRCWALRKDWYSDCSKLTHSLSTSDITAIPEKENEGNDVPDCRRTISAPVVRPKDAYIKKENSKLFDPCNSVEFLDLAHSSESQETISSMGEQLDNLSEQRTDTENMEDCQNLLKPCSLCEKRPRDGNIIHGRTGHLVTCFHCARRLKKAGASCPICKKEIQLVIKVFIA

Variants of: B1
Conditions: with ima4_human KPNA3, O00505
Sequence of ima4_human KPNA3, O00505 (O00505 whole entry): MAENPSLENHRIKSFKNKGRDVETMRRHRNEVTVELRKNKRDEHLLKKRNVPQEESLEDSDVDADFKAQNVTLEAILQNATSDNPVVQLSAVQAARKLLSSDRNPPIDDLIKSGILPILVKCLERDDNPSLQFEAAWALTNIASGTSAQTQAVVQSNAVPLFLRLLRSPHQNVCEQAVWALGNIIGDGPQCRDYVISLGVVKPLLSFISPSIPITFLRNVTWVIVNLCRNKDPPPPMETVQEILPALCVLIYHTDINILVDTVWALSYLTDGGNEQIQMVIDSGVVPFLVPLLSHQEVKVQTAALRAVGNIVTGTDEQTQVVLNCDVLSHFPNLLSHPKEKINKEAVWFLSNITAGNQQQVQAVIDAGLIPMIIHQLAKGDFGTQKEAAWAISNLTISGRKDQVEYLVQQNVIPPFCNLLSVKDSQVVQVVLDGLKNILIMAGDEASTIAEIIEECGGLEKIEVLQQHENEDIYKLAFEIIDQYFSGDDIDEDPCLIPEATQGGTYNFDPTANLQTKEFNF

Row | Variant | effect of a mutation on the interaction
1 | MTSFSTSAQCSTSDSACRISPGQINQVRPKLPLLKILHAAGAQGEMFTVKEVMHYLGQYIMVKQLYDQQEQHMVYCGGDLLGELLGRQSFSVKDPSPLYDMLRKNLVTLATATTDAAQTLALAQDHSMDIPSQDQLKQSAEESSTSRKRTTEDDIPTLPTSEHKCIHSREDEDLIENLAQDETSRLDLGFEEWDVAGLPWWFLGNLRSNYTPRSNGSTDLQTNQDVGTAIVSDTTDDLWFLNESVSEQLGVGIKVEAADTEQTSEEVGKVSDKKVIEVGKNDDLEDSKSLSDDTDVEVTSEDEWQCTECKKFNSPSKRYCFRCWALRKDWYSDCSKLTHSLSTSDITAIPEKENEGNDVPDCRRTISAPVVRPKDAYIKKENSKLFDPCNSVEFLDLAHSSESQETISSMGEQLDNLSEQRTDTENMEDCQNLLKPCSLCEKRPRDGNIIHGRTGHLVTCFHCARRLEKAGASCPICKKEIQLVIKVFIA [K468E] | disrupting interaction
